# Measurements reported in patent US20120088237.
# Substitutions are numbered along the chain they refer to.
# What was measured:
# [1] = test system: T1, BstNI (Bacillus stearothermophilus); experiment: cleavage_in_vitro; details: 5mC at inner (second) C of CCWGG (dcm); NEB1 and NEB4 0.1; NEB2 0.5; NEB3 2; 60 C 1 h, crude lysate
# T1 sequence: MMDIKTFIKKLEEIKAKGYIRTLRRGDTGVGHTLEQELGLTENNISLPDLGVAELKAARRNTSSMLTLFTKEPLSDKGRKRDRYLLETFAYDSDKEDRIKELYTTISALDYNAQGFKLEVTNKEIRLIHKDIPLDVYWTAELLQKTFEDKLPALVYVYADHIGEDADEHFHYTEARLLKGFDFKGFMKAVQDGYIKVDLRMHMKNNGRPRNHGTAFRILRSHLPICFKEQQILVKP
# [2] = test system: T2, BstNI R200C R200C (Bacillus stearothermophilus); experiment: cleavage_in_vitro; details: 5mC at inner (second) C of CCWGG (dcm); NEB1, NEB2 and NEB4 each 100; NEB3 10; 60 C 1 h, crude lysate
# T2 sequence: T1 sequence with R200C
substance,measurement,setting,value
CCWGG (double strand) [dcm+ plasmid pBC4 (C5mCWGG)],relative cleavage in vitro (fold (dcm+/dcm- cleavage)),[1],0.1
same,relative cleavage in vitro (fold (dcm+/dcm- cleavage)),[2],100
